Key:
[1] = target: Simplagrin (Simulium platelet aggregation inhibitor), recombinant (Simulium nigrimanum) (UniProt D1FQ14); experiment: SPR; kinetics: Simplagrin as ligand, RGQOGVMGF peptide as analyte (1-500 nM), 30 µL/min for 180 s, dissociation 600 s, global 1:1 model
[2] = target: Simplagrin (Simulium platelet aggregation inhibitor), recombinant (Simulium nigrimanum) (UniProt D1FQ14); experiment: SPR; steady state: Simplagrin immobilised on CM5 (500 RU), soluble collagens as analyte, HBS-P; KD as the analyte concentration at 50% of saturation
[3] = target: Soluble human collagen type III (human) (UniProt P02461); experiment: SPR; Simplagrin-CT with collagen type I and III; who was immobilised is not told in what was shown
[4] = target: Soluble human collagen type I (human) (UniProt P02452); experiment: as above
Sequence of Soluble human collagen type I (human) (P02452 162-1218, chain 1 of 2): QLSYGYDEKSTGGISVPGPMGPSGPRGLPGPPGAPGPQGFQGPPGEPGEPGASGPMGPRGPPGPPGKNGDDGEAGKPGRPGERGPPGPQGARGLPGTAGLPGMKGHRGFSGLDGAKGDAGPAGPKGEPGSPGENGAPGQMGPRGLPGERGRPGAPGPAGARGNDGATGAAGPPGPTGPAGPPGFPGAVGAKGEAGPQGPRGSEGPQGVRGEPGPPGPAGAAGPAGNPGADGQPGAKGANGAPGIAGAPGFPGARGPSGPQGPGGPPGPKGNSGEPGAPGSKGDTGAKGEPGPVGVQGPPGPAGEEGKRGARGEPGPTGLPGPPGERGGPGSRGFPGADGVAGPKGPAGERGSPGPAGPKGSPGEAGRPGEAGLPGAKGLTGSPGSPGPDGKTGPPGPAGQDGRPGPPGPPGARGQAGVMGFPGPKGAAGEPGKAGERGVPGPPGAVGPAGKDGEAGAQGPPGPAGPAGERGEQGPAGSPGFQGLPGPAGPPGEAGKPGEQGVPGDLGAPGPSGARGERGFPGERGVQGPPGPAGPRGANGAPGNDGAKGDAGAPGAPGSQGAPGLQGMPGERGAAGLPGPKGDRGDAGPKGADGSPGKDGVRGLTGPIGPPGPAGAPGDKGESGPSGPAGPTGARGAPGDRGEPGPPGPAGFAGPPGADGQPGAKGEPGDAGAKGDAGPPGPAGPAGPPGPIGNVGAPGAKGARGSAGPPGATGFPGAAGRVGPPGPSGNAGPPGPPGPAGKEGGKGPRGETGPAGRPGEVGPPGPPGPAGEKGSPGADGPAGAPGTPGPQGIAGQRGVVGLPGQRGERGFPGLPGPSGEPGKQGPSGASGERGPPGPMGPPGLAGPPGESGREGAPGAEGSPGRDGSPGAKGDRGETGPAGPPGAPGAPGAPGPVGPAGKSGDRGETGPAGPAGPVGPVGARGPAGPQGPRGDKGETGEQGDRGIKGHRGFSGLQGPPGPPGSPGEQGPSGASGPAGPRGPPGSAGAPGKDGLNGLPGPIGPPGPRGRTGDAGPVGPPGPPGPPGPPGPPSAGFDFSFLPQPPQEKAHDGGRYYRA
Sequence of Soluble human collagen type I (human) (P08123 80-1119, chain 2 of 2, further chain): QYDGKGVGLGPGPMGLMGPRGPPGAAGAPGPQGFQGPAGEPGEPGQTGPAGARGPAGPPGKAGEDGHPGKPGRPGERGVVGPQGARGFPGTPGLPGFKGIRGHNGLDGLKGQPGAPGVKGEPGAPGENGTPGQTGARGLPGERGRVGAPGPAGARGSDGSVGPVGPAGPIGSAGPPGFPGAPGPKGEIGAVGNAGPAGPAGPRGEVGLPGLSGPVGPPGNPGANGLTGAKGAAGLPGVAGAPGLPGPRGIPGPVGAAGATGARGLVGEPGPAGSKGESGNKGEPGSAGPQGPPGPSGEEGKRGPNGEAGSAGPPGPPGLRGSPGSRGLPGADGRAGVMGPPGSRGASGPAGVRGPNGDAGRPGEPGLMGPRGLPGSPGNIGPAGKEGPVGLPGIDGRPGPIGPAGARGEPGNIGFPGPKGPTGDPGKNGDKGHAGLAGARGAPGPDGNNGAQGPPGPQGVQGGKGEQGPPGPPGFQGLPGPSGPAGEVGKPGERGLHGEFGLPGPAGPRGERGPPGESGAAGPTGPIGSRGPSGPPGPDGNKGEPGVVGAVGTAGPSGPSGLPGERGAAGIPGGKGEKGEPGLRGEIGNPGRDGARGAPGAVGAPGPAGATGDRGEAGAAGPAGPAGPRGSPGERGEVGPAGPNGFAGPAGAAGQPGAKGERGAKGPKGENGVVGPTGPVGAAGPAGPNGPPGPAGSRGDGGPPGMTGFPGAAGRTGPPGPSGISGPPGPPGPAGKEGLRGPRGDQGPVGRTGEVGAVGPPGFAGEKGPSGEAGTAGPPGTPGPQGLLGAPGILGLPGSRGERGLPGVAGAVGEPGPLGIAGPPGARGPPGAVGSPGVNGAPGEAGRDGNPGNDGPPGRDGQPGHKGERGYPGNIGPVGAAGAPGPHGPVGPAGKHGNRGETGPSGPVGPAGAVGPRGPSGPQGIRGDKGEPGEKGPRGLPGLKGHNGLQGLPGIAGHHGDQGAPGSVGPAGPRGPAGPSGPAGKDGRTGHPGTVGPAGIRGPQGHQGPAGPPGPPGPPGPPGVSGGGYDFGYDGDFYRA

[5] = target: T1, Soluble human collagen type III (human, UniProt P02461 154-1221); experiment: ELISA; blocking: collagen type III (0.3 µg/mL) coated, Simplagrin 0.0015-1.5 µM for one hour at 37°C, washed, then 3 nM vWF; detected with anti-human vWF; conditions: both partners purified
T1 construct: also called Collagen-III; collagen III; source: bought: R&D Systems
T1 sequence (looked up): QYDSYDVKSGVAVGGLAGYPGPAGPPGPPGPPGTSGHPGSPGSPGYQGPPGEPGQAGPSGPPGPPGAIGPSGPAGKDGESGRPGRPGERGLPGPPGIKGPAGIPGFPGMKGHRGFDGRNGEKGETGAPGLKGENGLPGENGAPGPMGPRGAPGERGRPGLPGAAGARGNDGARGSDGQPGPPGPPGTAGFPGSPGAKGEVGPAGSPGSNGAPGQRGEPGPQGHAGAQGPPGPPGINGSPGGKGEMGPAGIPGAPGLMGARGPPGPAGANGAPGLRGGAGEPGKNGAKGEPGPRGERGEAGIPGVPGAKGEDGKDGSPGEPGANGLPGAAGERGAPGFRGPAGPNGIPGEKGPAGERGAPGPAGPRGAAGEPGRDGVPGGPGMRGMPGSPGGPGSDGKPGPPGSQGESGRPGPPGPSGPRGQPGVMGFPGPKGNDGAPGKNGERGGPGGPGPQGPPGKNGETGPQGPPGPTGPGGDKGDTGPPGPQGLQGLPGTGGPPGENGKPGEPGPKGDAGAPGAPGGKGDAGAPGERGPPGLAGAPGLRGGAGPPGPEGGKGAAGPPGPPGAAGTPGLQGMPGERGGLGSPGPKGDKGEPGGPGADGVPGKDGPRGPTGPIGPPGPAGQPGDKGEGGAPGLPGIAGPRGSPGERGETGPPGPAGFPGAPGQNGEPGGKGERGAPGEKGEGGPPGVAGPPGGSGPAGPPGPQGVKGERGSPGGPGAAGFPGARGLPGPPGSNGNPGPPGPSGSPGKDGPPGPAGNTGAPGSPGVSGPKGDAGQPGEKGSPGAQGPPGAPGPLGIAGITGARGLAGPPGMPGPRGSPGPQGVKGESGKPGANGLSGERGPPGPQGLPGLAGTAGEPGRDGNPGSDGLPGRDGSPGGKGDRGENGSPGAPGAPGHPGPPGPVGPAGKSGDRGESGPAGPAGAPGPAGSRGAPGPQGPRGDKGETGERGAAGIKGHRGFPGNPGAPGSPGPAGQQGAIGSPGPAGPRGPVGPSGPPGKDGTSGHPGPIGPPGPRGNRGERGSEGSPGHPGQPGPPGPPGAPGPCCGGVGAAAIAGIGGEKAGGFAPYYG

[6] = target: T1, Soluble human collagen type III; experiment: SPR; thermodynamics: Simplagrin (10-500 nM) over immobilised collagen type I or III at 15, 20, 25, 30, 35 and 40°C; 1:1 model, van't Hoff equation; conditions: both partners purified
[7] = target: T2, Soluble human collagen type I (human, UniProt P02452 162-1218; P08123 80-1119); experiment: as above; conditions: both partners purified
T2 construct: also called Collagen-I; Col-I; source: bought: R&D Systems
T2 sequence (P02452 162-1218, chain 1 of 2): as the sequence (P02452 162-1218, chain 1 of 2) above
T2 sequence (P08123 80-1119, chain 2 of 2): as the sequence (P08123 80-1119, chain 2 of 2, further chain) above

[8] = target: T2, Soluble human collagen type I; experiment: SPR; kinetics: collagen type I or III immobilised on CM5 by amine coupling, Simplagrin as analyte (0.015-1 µM), 180 s contact at 30 µL/min, 25°C, HBS-P, 1:1 Langmuir model; conditions: both partners purified
[9] = target: T1, Soluble human collagen type III; experiment: as above; conditions: both partners purified
[10] = target: T1, Soluble human collagen type III; experiment: SPR; steady state: Simplagrin immobilised on CM5 (500 RU), soluble collagens as analyte, HBS-P; KD as the analyte concentration at 50% of saturation; conditions: both partners purified
[11] = target: Soluble human collagen type VI (human, UniProt P12109 20-1028; P12110 21-1019; P12111 26-3177); experiment: as above; conditions: both partners purified
[12] = target: T2, Soluble human collagen type I; experiment: as above; conditions: both partners purified
[13] = target: Soluble human collagen type IV (human, UniProt P02462 173-1669; P08572 184-1712); experiment: as above; conditions: both partners purified

“RGQOGVMGF collagen-derived peptide (vWF-recognition peptide)” was tested. Which Kd [1] did it give?
The Kd was 11.1 nM.

What about the koff [1] of the same molecule?
The koff was 0.00048 s⁻¹.

What about the kon [1] of the same molecule?
Its kon is 727000 M⁻¹ s⁻¹.

Which Kd [2] does the source give for “Soluble human collagen type V (from UniProt P20908 38-1605; P05997 27-1229) (natural protein)” here?
The Kd was 10.8 nM.

How did the Kd [3] turn out when “Simplagrin carboxy-terminus domain (Simplagrin-CT) (domain or fragment)” was run?
Its Kd is 162 nM.

What about the Kd [4] of the same molecule?
The Kd was 285 nM.

How did the Kd [2] turn out when “Collagen type I from rat tail (from UniProt P02454 23-1207; P02466 86-1125) (natural protein)” was run?
Its Kd is 12.4 nM.

B1: Simplagrin (Simulium platelet aggregation inhibitor), recombinant (natural protein, Simulium nigrimanum, UniProt D1FQ14 21-286, looked up)
chain: SPIPDEESEETEDAEQEEDAEEEEHAEEEAQEDGDQTQDTDQESDDGQEETANQGSDEQQEEDGSHGTDETDDEAAGSRTEDVESGGDEQNDGEENGSQENGEEVTGGEDDSHGAQDSEGGEEDAAAQEAGGKKSKGKGAKGGQGSNRAGSSSGGEESAAHTYQEVMRILNGIKINAKEPLKSRLVNGLQYLKVDTINRVENIQKFSRIEHCFGNLDHIVQLYAGDAVERNDYCKGTCIDMVSNEFRGQMEELTSRLYPCLQGGYY
notes: Simplagrin (cluster Sim-50), salivary gland protein of Simulium nigrimanum; precursor of 286 aa with a predicted signal peptide of 20 aa; the construct holds the mature protein and a 6X-His tag before the stop codon; Synthetic codon optimised gene in the VR2001 TOPO vector; also called Sim-50; recombinant Simplagrin; source: FreeStyle293 F (HEK293) cells, transfected, secreted; purified (Ni2+ …)
What does the source list for B1?
IC50 [5]: ~100 nM; dH [6]: -12.9 kcal/mol; dH [7]: -4.54 kcal/mol; Kd [8]: 5.51 nM; Kd [9]: 2.1 nM; koff [9]: 0.00031 s⁻¹; kon [9]: 148000 M⁻¹ s⁻¹; Kd [10]: 9.72 nM; Kd [11]: 23.3 nM; Kd [12]: 10.3 nM; Kd [13]: 27.6 nM

Reference: article PMC4055580, “Simplagrin, a Platelet Aggregation Inhibitor from Simulium nigrimanum Salivary Glands Specifically Binds to the Von Willebrand Factor Receptor in Collagen and Inhibits Carotid Thrombus Formation In Vivo” (PLoS Neglected Tropical Diseases, 2014)
